Data taken from patent US20120252698.

Test system: T1, PhosFluor (the fluorescent protein having the amino acid sequence set forth in SEQ ID NO: 10)
T1 sequence: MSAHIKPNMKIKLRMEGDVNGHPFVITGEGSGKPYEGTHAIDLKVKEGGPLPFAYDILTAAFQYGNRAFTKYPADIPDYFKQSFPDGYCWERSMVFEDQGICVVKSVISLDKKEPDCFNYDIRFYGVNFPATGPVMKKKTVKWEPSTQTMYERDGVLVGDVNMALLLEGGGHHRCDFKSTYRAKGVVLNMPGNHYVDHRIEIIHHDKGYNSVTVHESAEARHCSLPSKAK

Sequence of Akt1 (P31749 whole entry): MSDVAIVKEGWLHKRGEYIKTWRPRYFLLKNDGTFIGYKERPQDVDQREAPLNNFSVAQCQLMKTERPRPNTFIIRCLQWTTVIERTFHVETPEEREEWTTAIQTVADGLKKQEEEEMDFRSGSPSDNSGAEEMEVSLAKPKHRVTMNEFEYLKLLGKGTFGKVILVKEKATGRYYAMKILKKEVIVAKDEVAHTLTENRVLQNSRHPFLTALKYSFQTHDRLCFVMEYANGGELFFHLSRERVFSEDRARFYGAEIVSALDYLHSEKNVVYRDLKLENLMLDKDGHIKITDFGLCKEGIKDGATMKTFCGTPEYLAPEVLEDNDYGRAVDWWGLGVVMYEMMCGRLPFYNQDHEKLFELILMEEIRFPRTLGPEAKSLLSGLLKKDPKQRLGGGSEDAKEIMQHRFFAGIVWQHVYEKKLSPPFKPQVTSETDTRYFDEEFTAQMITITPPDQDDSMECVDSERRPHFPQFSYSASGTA

Row | Substance | Western blot analyses of phosphorylation | emission spectrum of PhosFluor | also measured
1 | Akt1 | serine and threonine sites on PhosFluor are phosphorylated by PKA, PKC, mitogen-activated protein kinase (MAPK), cell division control protein 2 (cdc2), and Akt1 | A marked shift in the emission spectrum of PhosFluor was observed when this molecule was incubated with PKA, PKC or Akt1 | excitation spectrum of PhosFluor: the excitation spectrum of PhosFluor was dramatically altered upon phosphorylation by different protein kinases, including Akt1
2 | PKA | serine and threonine sites on PhosFluor are phosphorylated by PKA, PKC, mitogen-activated protein kinase (MAPK), cell division control protein 2 (cdc2), and Akt1 | A marked shift in the emission spectrum of PhosFluor was observed when this molecule was incubated with PKA, PKC or Akt1 | upward shift of apparent molecular weight on SDS-PAGE: To a lesser extent, higher molecular weight species were also observed upon phosphorylation by PKA
3 | Src | – | – | SDS-PAGE and immunoblot of PhosFluor incubated with kinase (total protein, phospho-tyrosine, mobility shift): PhosFluor is an avid substrate for PKC and Src
4 | alkaline phosphatase | – | – | fluorescence intensity of PhosFluor over time: This treatment virtually abolished the increase in fluorescence intensity of PhosFluor over time
5 | cell division control protein 2 (cdc2) | serine and threonine sites on PhosFluor are phosphorylated by PKA, PKC, mitogen-activated protein kinase (MAPK), cell division control protein 2 (cdc2), and Akt1 | – | fluorescence intensity of PhosFluor incubated with kinase: The fluorescence intensity of PhosFluor also increased above background levels when the protein was incubated with cdc2 and MAPK (data not shown)
6 | mitogen-activated protein kinase (MAPK) | serine and threonine sites on PhosFluor are phosphorylated by PKA, PKC, mitogen-activated protein kinase (MAPK), cell division control protein 2 (cdc2), and Akt1 | – | fluorescence intensity of PhosFluor incubated with kinase: The fluorescence intensity of PhosFluor also increased above background levels when the protein was incubated with cdc2 and MAPK (data not shown)
7 | protein kinase C (PKC) | serine and threonine sites on PhosFluor are phosphorylated by PKA, PKC, mitogen-activated protein kinase (MAPK), cell division control protein 2 (cdc2), and Akt1 | A marked shift in the emission spectrum of PhosFluor was observed when this molecule was incubated with PKA, PKC or Akt1 | SDS-PAGE and immunoblot of PhosFluor incubated with kinase (total protein, phospho-tyrosine, mobility shift): PhosFluor is an avid substrate for PKC and Src; upward shift of apparent molecular weight on SDS-PAGE: when phosphorylated by PKC, multiple higher molecular weight species of PhosFluor were resolved by SDS-PAGE
